Source: patent publication US20240392004A1 (IMMUNOWAKE, published 2024)
One block for each binder: values may come before it.

What was measured:
[1] = molecular target: T1, human PD-1 on cells (HEK-PD-1 reporter cells; activated PBMC) (human, UniProt Q15116 25-288); assay: cell-based or functional assay
[2] = molecular target: T2, human IL-2 receptor (IL-2Rα, IL-2Rβ, IL-2Rγ) (human, UniProt P01589 22-272; P14784 27-551; P31785 23-369); assay: cell-based or functional assay
T2 sequence (looked up) 1: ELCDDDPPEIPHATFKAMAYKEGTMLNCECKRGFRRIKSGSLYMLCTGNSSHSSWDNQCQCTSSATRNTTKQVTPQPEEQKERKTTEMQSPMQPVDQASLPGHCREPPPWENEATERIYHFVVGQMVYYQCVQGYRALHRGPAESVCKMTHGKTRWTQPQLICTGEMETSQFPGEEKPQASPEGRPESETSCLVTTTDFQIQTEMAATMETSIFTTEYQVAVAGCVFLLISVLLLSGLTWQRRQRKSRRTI
T2 sequence (looked up) 2: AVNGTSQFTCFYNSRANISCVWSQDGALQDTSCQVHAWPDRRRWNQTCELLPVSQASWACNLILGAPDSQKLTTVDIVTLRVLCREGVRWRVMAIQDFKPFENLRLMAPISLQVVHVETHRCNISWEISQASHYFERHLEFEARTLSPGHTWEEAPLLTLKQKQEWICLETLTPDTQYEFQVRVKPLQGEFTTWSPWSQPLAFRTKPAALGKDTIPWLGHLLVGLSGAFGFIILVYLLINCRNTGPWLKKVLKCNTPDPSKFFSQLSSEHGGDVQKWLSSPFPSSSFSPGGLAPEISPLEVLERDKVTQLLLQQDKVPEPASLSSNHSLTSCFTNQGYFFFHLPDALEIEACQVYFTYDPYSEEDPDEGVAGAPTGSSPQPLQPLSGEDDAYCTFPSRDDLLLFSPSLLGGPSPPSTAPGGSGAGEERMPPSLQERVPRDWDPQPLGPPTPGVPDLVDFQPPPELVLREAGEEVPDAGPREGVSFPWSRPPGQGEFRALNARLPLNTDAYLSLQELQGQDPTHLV
T2 sequence (looked up) 3: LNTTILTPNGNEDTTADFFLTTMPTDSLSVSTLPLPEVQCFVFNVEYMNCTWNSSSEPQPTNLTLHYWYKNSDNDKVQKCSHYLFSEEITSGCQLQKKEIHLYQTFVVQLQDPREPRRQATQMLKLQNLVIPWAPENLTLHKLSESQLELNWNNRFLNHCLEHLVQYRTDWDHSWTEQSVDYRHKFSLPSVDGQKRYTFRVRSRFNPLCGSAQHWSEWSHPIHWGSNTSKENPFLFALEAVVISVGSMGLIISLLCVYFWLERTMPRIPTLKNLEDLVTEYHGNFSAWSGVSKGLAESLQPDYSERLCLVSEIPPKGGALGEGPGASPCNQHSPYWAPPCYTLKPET

[3] = molecular target: T2, human IL-2 receptor (IL-2Rα, IL-2Rβ, …); assay: FACS on HEK-Blue IL-2 cells (IL-2 receptor, no PD-1)
[4] = molecular target: T1, human PD-1 on cells (HEK-PD-1 reporter …); assay: cell-based or functional assay; remark: listed apart in the source
[5] = molecular target: human IL-12 receptor complex (IL-12Rβ1 and IL-12Rβ2) (human, UniProt P42701 24-662; Q99665 24-862); assay: cell-based or functional assay
human IL-12 receptor complex (IL-12Rβ1 and IL-12Rβ2), sequence (Q99665 24-862, chain 2 of 2, other chains not shown): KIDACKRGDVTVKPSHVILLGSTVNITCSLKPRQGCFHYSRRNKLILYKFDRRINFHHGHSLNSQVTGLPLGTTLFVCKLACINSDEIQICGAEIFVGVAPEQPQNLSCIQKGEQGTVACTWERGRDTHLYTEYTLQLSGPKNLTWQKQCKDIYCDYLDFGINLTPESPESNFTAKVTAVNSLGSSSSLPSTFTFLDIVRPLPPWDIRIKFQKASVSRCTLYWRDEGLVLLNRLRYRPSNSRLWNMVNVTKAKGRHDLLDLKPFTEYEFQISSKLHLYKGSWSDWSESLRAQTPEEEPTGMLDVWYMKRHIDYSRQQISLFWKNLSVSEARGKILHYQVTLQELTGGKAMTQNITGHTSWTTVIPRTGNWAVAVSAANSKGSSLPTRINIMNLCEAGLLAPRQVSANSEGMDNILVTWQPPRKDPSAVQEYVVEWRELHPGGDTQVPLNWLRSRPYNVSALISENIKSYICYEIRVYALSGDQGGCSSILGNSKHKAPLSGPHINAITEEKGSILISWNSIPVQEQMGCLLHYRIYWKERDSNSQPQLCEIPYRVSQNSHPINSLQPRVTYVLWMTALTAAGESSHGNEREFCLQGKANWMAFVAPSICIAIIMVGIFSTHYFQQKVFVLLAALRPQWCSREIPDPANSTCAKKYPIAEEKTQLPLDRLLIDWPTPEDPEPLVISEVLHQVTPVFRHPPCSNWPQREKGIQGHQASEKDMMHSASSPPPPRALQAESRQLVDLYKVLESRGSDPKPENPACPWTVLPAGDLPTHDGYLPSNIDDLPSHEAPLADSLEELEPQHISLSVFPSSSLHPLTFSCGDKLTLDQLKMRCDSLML

[6] = molecular target: T2, human IL-2 receptor (IL-2Rα, IL-2Rβ, …); assay: cell-based or functional assay; remark: listed apart in the source
human PD-1 = molecular target: T3, human PD-1 (human, UniProt Q15116 25-167, limits assumed); assay: rounded restatement of Tables 14 and 15
T3 construct: also called hPD-1
T3 sequence (Q15116 25-167 limits assumed): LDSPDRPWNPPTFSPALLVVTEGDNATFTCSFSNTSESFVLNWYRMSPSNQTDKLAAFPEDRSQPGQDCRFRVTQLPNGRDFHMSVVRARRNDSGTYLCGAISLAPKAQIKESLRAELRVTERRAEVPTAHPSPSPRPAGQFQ

mouse PD-1 [7] = molecular target: T4, mouse PD-1 (mouse, UniProt Q02242 25-167, limits assumed); assay: rounded restatement of Tables 14 and 15
T4 construct: also called mPD-1
T4 sequence (looked up): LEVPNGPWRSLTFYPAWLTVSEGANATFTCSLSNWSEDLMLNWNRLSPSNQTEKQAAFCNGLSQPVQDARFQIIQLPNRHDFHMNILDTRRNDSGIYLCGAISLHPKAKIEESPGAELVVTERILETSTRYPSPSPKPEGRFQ

mouse PD-1 [8] = molecular target: T4, mouse PD-1; assay: same value as Table 14 (measured in PD-L1-Fc format)

T1 sequence (Q15116 25-288): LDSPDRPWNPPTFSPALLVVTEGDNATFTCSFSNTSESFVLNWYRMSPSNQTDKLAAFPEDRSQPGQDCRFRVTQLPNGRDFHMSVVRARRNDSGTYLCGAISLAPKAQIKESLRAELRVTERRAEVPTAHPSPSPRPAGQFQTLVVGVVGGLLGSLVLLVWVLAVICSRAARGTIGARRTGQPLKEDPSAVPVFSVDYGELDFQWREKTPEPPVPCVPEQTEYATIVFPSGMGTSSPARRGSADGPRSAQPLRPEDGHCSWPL

- Percent IL-2 signal transduction (HEK-PD-1-IL-2 reporter assay) [1]: 43.5%
- Percent IL-2 signal transduction (HEK-IL-2 reporter assay) [2]: 2.4%
- binding result [3]: no binding
B1: IL-2(R38D/K43E/E61R)/PD-L2-Fc immunomodulatory molecule (Fc fusion)
chain 1: LFTVTVPKELYIIEHGSNVTLECNFDTGSHVNLGAITASLQKVENDTSPHRERATLLEEQLPLGKASFHIPQVQVRDEGQYQCIIIYGVAWDYKYLTLKVKASYRKINTHILKVPETDEVELTCQATGYPLAEVSWPNVSVPANTSHSRTPEGLYQVTSVLRLKPPPGRNFSCVFWNTHVRELTLASIDLQSQMEPRTHPTGGGGSAPTSSSTKKTQLQLEHLLLDLQMILNGINNYKNPKLTDMLTFEFYMPKKATELKHLQCLERELKPLEEVLNLAQSKNFHLRPRDLISNINVIVLELKGSETTFMCEYADETATIVEFLNRWITFCQSIISTLTDKTHTCPPCPAPEDEGGPSVFLFPPKPKDTLMISRTPEVTCVVVDVSHEDPEVKFNWYVDGVEVHNAKTKPREEQYNSTYRVVSVLTVLHQDWLNGKEYKCKVSNKALPAPIEKTISKAKGQPREPQVYVYPPSREEMTKNQVSLTCLVKGFYPSDIAVEWESNGQPENNYKTTPPVLDEDGSFALVSKLTVDKSRWQQGNVFSCSVMHEALHNHYTQKSLSLSPGK
chain 2: LFTVTVPKELYIIEHGSNVTLECNFDTGSHVNLGAITASLQKVENDTSPHRERATLLEEQLPLGKASFHIPQVQVRDEGQYQCIIIYGVAWDYKYLTLKVKASYRKINTHILKVPETDEVELTCQATGYPLAEVSWPNVSVPANTSHSRTPEGLYQVTSVLRLKPPPGRNFSCVFWNTHVRELTLASIDLQSQMEPRTHPTGGGGSDKTHTCPPCPAPEKKGGPSVFLFPPKPKDTLMISRTPEVTCVVVDVSHEDPEVKFNWYVDGVEVHNAKTKPREEQYNSTYRVVSVLTVLHQDWLNGKEYKCKVSNKALPAPIEKTISKAKGQPREPQVYVLPPSREEMTKNQVSLLCLVKGFYPSDIAVEWESNGQPENRYMTWPPVLDSDGSFFLYSKLTVDKSRWQQGNVFSCSVMHEALHNHYTQKSLSLSPGK
notes: also called ligand-IL-2 mutant-PD-L2-Fc; IW-#11

- IL-2 signal transduction, HEK-IL-2-PD-1 [4]: < 0.1%
- IL-12 signal transduction, HEK-IL-12-PD-1 [4]: 24%
- IL-12 signal transduction, HEK-IL-12 [5]: < 0.2%
- IL-2 signal transduction, HEK-IL-2 [6]: < 0.1%
- Kd (human PD-1): ~100 nM
- Kd (mouse PD-1 [7]): ~100 nM
- Kd (mouse PD-1 [8]): 120 nM
B2: IL-12(E59A/F60A)/PD-L1(mut2)-Fc (IL-12 at hinge) (Fc fusion)
chain 1: FTVTVPKDLYVVEYGSNMTIECKFPVEKQLDLAALQVYWMMEDKNIIQFVHGEEDLKVQHSSYRQRARLLKDQLSLGNAALQITDVKLQDAGVYTCLIAYKGADYKRITVKVNAPYNKINQRILVVDPVTSEHELTCQAEGYPKAEVIWTSSDHQVLSGKTTTTNSKREEKLFNVTSTLRINTTTNEIFYCTFRRLDPEENHTAELVIPELPLAHPPNERGGGGSGGGIWELKKDVYVVELDWYPDAPGEMVVLTCDTPEEDGITWTLDQSSEVLGSGKTLTIQVKAAGDAGQYTCHKGGEVLSHSLLLLHKKEDGIWSTDILKDQKEPKNKTFLRCEAKNYSGRFTCWWLTTISTDLTFSVKSSRGSSDPQGVTCGAATLSAERVRGDNKEYEYSVECQEDSACPAAEESLPIEVMVDAVHKLKYENYTSSFFIRDIIKPDPPKNLQLKPLKNSRQVEVSWEYPDTWSTPHSYFSLTFCVQVQGKSKREKKDRVFTDKTSATVICRKNASISVRAQDRYYSSSWSEWASVPCSGGGGSGGGSGGGGSRNLPVATPDPGMFPCLHHSQNLLRAVSNMLQKARQTLEFYPCTSEEIDHEDITKDKTSTVEACLPLELTKNESCLNSRETSFITNGSCLASRKTSFMMALCLSSIYEDLKMYQVEFKTMNAKLLMDPKRQIFLDQNMLAVIDELMQALNFNSETVPQKSSLEEPDFYKTKIKLCILLHAFRIRAVTIDRVMSYLNASGGGGSGGGDKTHTCPPCPAPEDEGGPSVFLFPPKPKDTLMISRTPEVTCVVVDVSHEDPEVKFNWYVDGVEVHNAKTKPREEQYNSTYRVVSVLTVLHQDWLNGKEYKCKVSNKALPAPIEKTISKAKGQPREPQVYVYPPSREEMTKNQVSLTCLVKGFYPSDIAVEWESNGQPENNYKTTPPVLDEDGSFALVSKLTVDKSRWQQGNVFSCSVMHEALHNHYTQKSLSLSPGK
chain 2: FTVTVPKDLYVVEYGSNMTIECKFPVEKQLDLAALQVYWMMEDKNIIQFVHGEEDLKVQHSSYRQRARLLKDQLSLGNAALQITDVKLQDAGVYTCLIAYKGADYKRITVKVNAPYNKINQRILVVDPVTSEHELTCQAEGYPKAEVIWTSSDHQVLSGKTTTTNSKREEKLFNVTSTLRINTTTNEIFYCTFRRLDPEENHTAELVIPELPLAHPPNERGGGGSGGGDKTHTCPPCPAPEKKGGPSVFLFPPKPKDTLMISRTPEVTCVVVDVSHEDPEVKFNWYVDGVEVHNAKTKPREEQYNSTYRVVSVLTVLHQDWLNGKEYKCKVSNKALPAPIEKTISKAKGQPREPQVYVLPPSREEMTKNQVSLLCLVKGFYPSDIAVEWESNGQPENRYMTWPPVLDSDGSFFLYSKLTVDKSRWQQGNVFSCSVMHEALHNHYTQKSLSLSPGK
notes: also called IL-12(E59A/F60A)/PD-L1(I54Q/E58M/R113T/M115L/S117A/G119K)-Fc
